Experimental data from patent publication US20210198366A1 (NGM BIOPHARMACEUTICALS, published 2021).

T1: cynomolgus monkey B7-H7 expressed on HEK-293T cells (cynomolgus monkey)
T1 construct: also called cyno B7-H7; cells expressing cyno B7-H7
T1 chain: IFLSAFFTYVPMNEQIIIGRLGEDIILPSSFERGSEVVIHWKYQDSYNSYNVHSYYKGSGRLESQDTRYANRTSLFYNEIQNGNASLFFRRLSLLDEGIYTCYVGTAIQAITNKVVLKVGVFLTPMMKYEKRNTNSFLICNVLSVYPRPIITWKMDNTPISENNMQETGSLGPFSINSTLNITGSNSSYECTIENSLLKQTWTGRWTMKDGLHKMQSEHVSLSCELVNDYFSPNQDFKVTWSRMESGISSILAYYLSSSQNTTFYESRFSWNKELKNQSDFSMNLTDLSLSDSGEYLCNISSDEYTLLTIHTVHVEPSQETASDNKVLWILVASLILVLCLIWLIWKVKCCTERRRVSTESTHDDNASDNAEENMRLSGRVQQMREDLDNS

T2: soluble human B7-H7-Fc fusion protein (extracellular region of human B7-H7, aa 23-344, and a human Fc … (human, UniProt Q9UM44 23-344))
T2 construct: also called hB7-H7-Fc; soluble B7-H7
T2 sequence: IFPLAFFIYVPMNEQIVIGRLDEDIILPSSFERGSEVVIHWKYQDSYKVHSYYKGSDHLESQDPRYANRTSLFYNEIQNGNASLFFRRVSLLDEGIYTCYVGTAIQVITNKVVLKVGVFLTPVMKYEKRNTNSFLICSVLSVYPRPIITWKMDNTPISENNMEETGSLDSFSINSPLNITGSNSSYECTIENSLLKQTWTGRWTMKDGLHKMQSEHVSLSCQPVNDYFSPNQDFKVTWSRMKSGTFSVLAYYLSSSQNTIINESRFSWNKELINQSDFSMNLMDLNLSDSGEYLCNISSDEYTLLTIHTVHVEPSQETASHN

T3: human B7-H7 expressed on the cell surface (human, UniProt Q9UM44 23-414)
T3 sequence: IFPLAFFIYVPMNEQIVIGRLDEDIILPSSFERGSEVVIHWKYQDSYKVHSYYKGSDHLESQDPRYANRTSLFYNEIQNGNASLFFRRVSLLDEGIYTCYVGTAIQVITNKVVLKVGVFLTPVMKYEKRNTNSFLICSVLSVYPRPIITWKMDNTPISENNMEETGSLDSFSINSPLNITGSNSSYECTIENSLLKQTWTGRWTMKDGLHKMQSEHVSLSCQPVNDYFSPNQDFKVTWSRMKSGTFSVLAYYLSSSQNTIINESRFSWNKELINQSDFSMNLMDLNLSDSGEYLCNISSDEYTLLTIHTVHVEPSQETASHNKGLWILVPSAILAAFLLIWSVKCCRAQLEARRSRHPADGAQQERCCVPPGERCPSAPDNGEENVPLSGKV

T4: human B7-H7 (soluble analyte in SPR) (human, UniProt Q9UM44 23-344, limits assumed)
T4 sequence: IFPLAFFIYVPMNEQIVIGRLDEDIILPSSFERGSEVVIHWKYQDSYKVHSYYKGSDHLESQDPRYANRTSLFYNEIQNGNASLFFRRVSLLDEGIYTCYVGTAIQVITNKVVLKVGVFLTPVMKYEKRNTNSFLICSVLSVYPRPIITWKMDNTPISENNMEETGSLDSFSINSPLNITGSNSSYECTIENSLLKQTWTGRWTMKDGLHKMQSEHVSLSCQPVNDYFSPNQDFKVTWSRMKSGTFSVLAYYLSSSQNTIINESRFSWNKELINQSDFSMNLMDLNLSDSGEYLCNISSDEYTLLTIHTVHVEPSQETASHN

B1: anti-B7-H7 antibody 16D5 (antibody, V domains shown)
VH: QVQLQQSAAELARPGASVKMSCKASGYTFTTYTMHWVKQRPGQGLEWIGYINPSRGYSDYSQKFQGKSTLTTDKSSNTAYIQLTSLTSEDSAVYFCARGGYDFDYWGQGTTLTVSS
VL: DIVMTQSHKFMSTSVGDRVSITCKASQDVGTAVAWYQQKPGQSPKLLLYWASTRHTGVPDRFTGSGSGTDYTLTISSVQAEDLALYHCQQHFITPYTFGGGTKLEIK
notes: Mouse hybridoma antibody
B2: anti-B7-H7 antibody 2F10 (antibody, V domains shown)
VH: EIQLQQTGPELVKPGASLRISCKASGYSFTDYIIVWVKQNQGKNLDWIEKINPYYGTTTYNLRFEDKATLTVNKSSTTAYMQLNSLTSEDSAVYYCARWDYVSTLFAMDYWGQGTSITVSS
VL: DIVMTQSHKVMSTSVGDRVSIICKASQDVGTAVAWYQQKPGQSPKLLIYWASTRHTGVPDRFTGSGSGTDFILTITNVQSENLANYFCQQYKRYYTFGGGTKLEIK
notes: Mouse hybridoma antibody
B3: anti-B7-H7 antibody 5F7 (antibody, V domains shown)
VH: QEQLQQPGTELVKPGASVKISCKASGYTFSSYSMHWVKLTPGQGLEWMGTIYPGNENTSYNQKFKGKATLTADKSSSTAYMQLSSLTSEDSAVYYCARGGYYFDYWGQGTTLTVSS
VL: DIVMTQSHKFLSTSVGDRVSITCKASQDVSTAVAWYQQKPGQSPKLLIYWASTRHTGVSDRFTGSGSGTDFTLTISSVQAEDLALYYCQQHFDIPYWFGGGTKLEIK
notes: Mouse hybridoma antibody
B4: anti-B7-H7 antibody 5B10 (antibody, V domains shown)
VH: EVQLQQSGPELEKPGASVKISCKASGYSFTGYNMNWVKQSNGKSLEWIGNIDPYSGGSTYNQKFKGKATLTVDKSSSTASLQLKSLTSEDSSVYYCARSFYDAPYLTYWGQGTLVTVSA
VL: DIQMTQSPTSLSASVGETVTITCRASENIFIYLAWYQQKQGKSPQLLVFNAKTLAEGVPSRFSGSGSGTQFSLKINSLRPEDFGTYYCQHHYGTPPTFGGGTKLEV
notes: Mouse hybridoma antibody
B5: anti-B7-H7 antibody 5C9 (antibody, V domains shown)
VH: QVQLQQSGAELAKPGASVKMSCKASGYTFTSFWIHWIKQRPGQGLEWIGYIIPNTDYTEYNQKFKDKATFTADKSSSTAYMQLSSLTSEDSAVFYCARGLRGAYYFDYWGQGTTLTVSS
VL: DIVLTQSPASLAVSLGLRATISCRSSQSVSTSTNGYMHWYQQKPGQPPKLLIMYASNLESGVPARFSGSGSGTDFTLNIHPVDEEDTATYYCQHSWVLPYTFGGGTKLEIK
notes: Mouse hybridoma antibody
B6: anti-B7-H7 antibody 3H6 (antibody, V domains shown)
VH: EVQLQQSGPELVKPGASVKISCKTSGYTFTEYTMHWVKQSHGKSLEWIGGINPNNGGAPYNQKFKGKATLTVDKSSSTAYMELRSLTSEDSAVYYCARGGYYFDYWGQGTTLTVSS
VL: DIVMTQSHKFMSTSVGDRVSITCKASQDVSTAVAWYQQKSGQSPKLLIYWASTRHTGVPDRFTGSGSGTDYTLTISSVQAEDLALYYCQQHYDTPFTFGGGTKLEIK
notes: Mouse hybridoma antibody
B7: anti-B7-H7 antibody 1D3 (antibody, V domains shown)
VH: EVQLQQSGPELEKPGASVKISCKASGYSFTGYNMNWVKESNGRSLEWIGNIDPYSGGSTYNQKFKGKATMTVDKSSSTAYMQLKSLTSEDSAVYYCARSVYDAPWLAHWGQGTLVTVSA
VL: DIQMTQSPASLSASVGETVTITCRASENIYIYLAWYQQKQGKSPQLLVYNAKTLAEGVPSRFSGSGSGTQFSLKINRLQPEDFGNYYCQHHYGTPPTFGGGTKLEIK
notes: Mouse hybridoma antibody
B8: anti-B7-H7 antibody 28F5 (antibody, V domains shown)
VH: QVQLKESGPGLVAPSQSLSITCTVSGFSLTGYGVNWVRQPPGKGLEWLGVIWGDGSTDYNSVLKSRLSISKDNSKSQVFLKMNSLQTDDTARYYCAREATEYLYWYFDVWGAGTTVTVSS
VL: DIVLTQSPASLAVSLGQRATISCRASESVEYYGSSLMQWYQQKPGQPPKLLIFAASNVESGVPPRFSGSGSGTDFNLNIHPVDEDDIAMYFCQQGRRVPWTFGGGTKLEIK
notes: Mouse hybridoma antibody
B9: chimeric 2D7 antibody comprising the murine heavy chain and light chain variable regions of 2D7 and a human Fc region (antibody, V domains shown)
VH: EVQLQQSGPELVKPGASVKISCKTSGYTFTEYTMHWVKQSHGKSLEWIGGINPNNYGAPYNQKFKGKATLTVDKSSNTAYMELRSLTSEDSAIYYCASGGYYFDYWGQGTTLTVSS
VL: DIVMTQSHKFMSTSFGDRVSITCKASQDVGTAVAWYQQKLGQSPKLLISWAFTRHTGVPDRFTGSGSGTDYTLTISSLQAEDLALYYCQQHYDTPFTFGSGTKLEIK
B10: humanized anti-B7-H7 antibody Hz2D7 (antibody, human IgG1, kappa, V domains shown)
VH: QVQLVQSGAEVKKPGASVKVSCKTSGYTFTEYTMHWVRQAPGQGLEWMGGINPNNYGAPYNQKFKGRVTMTVDTSISTAYMELSRLRSDDTAVYYCASGGYYFDYWGQGTLVTVSS
VL: DIQMTQSPSSLSASVGDRVTITCKASQDVGTAVAWYQQKPGKAPKLLIYWAFTRHTGVPSRFSGSGSGTDYTLTISSLQPEDFATYYCQQHYDTPFTFGQGTKVEIKR

Experiments:
[1] = molecular target: T1, cynomolgus monkey B7-H7 expressed on …; test: FACS on HEK-293T cells expressing cyno B7-H7
[2] = molecular target: T2, soluble human B7-H7-Fc fusion protein …; test: FACS competition: antibody titrated against soluble hB7-H7-Fc binding to HEK-293 cells expressing human KIR3DL3
Description: (§1) Exemplary anti-B7-H7 antibodies identified by ELISA and FACS were tested for their ability to block binding of soluble B7-H7 to receptors KIR3DL3 or CD28H in a FACS assay. HEK-293 cells were transiently transfected with a construct encoding (i) a membrane-bound KIR3DL3 protein or (ii) a membrane-bound CD28H protein. After 48 hours, transfected cells were suspended in ice cold PBS containing 1% FBS and 0.1% sodium azide and incubated on ice in the presence of […]/ml of soluble human B7-H7-Fc protein and antibodies 2D7, 1D3, 28F3, 16D5, 2F10, 5F7, 5B10, 5C9, or 3H6 (serially diluted from […] to 4.6 ng/ml). A second incubation with an anti-human Fc secondary antibody was performed to detect cells bound by the soluble B7-H7-Fc. The cells were analyzed on a BD FACSCalibur instrument (BD Biosciences) and the data was processed using FlowJo software. Calculated IC50s are shown Table 12.

[3] = molecular target: T3, human B7-H7 expressed on the cell …; test: cell-based or functional assay
[4] = molecular target: T2, soluble human B7-H7-Fc fusion protein …; test: FACS competition: antibody titrated against soluble hB7-H7-Fc binding to HEK-293 cells expressing human CD28H
Description: as §1

[5] = molecular target: T4, human B7-H7 (soluble analyte in SPR); test: SPR (Biacore), antibody captured by anti-Fc on CM5 chip, B7-H7 injected, 37 C
Description: (§2) The binding affinities of exemplary anti-B7-H7 antibodies to human B7-H7 and cyno B7-H7 were measured using SPR technology (Biacore system, GE Healthcare Life Sciences). Briefly, anti-Fc antibody (Sigma-Aldrich) was immobilized on all four flow cells of a CM5 chip using amine coupling reagents (GE Healthcare LifeSciences). Exemplary antibodies were captured on flow cells 2, 3, and 4 using flow cell 1 as a reference. Human B7-H7 or cyno B7-H7 (samples ranging from 0.62-40 nM) were injected at a flow rate of 50 μL/min at 37° C. Kinetic data were collected over time and fit using the simultaneous global fit equation to yield affinity constants (KD values) for each antibody.

[6] = molecular target: T3, human B7-H7 expressed on the cell …; test: FACS on HEK-293T cells expressing human B7-H7
[7] = molecular target: T4, human B7-H7 (soluble analyte in SPR); test: SPR (Biacore)
Description: as §2
The binding affinity of Hz2D7 to human B7-H7 and cyno B7-H7 was determined using SPR technology (Biacore system) as described herein and compared with the binding affinity of the parental antibody and with a chimeric 2D7 antibody comprising the murine heavy chain and light chain variable regions of 2D7 and a human Fc region.

Binder	MFI [1]	IC50 [2]	Induction of NK-92 cytotoxicity EC50 [3]	Induction of NK-92 cytotoxicity Relative efficacy [3]	IC50 [4]	Kd [5]	MFI [6]	Kd [7]	koff [7]
B1	199 MFI	1.7 nM	0.5 nM	135%	2 nM	0.2 nM	165 MFI		
B2	134 MFI	2.5 nM	0.9 nM	146%	3 nM	0.3 nM	101 MFI		
B3	195 MFI	1.6 nM	0.6 nM	151%	1.8 nM	0.6 nM	163 MFI		
B4	93 MFI	2.4 nM	1.6 nM	148%	3.4 nM	4 nM	82 MFI		
B5	176 MFI	3 nM	1.6 nM	155%	3.4 nM	0.8 nM	185 MFI		
B6	568 MFI	2.7 nM	0.8 nM	105%	2.5 nM	0.8 nM	41 MFI		
B7	214 MFI	5 nM	1.2 nM	136%	8 nM	0.9 nM	247 MFI		
B8	165 MFI	2.6 nM	0.5 nM	150%	2.7 nM	0.4 nM	152 MFI		
B9								< 0.1 nM	5.61e-06 s⁻¹
B10								< 0.1 nM	1.01e-05 s⁻¹
